Measured values taken from article PMC4072508, “Genome-Wide Prediction and Validation of Peptides That Bind Human Prosurvival Bcl-2 Proteins” (PLoS Computational Biology, 2014).

T1: Bfl-1, Q16548
T1 chain: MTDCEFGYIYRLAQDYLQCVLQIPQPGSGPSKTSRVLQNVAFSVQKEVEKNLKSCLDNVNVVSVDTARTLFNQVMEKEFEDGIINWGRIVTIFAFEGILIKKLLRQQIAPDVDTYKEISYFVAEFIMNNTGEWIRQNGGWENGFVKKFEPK

T2: Mcl-1, Q07820
T2 chain: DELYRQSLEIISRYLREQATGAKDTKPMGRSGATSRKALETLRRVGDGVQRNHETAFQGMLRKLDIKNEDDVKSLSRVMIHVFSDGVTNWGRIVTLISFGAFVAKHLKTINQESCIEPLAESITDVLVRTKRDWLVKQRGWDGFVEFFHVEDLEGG


Target: T1, Bfl-1, Q16548
Test: peptide SPOT array, c-Myc-tagged receptor at 1 uM or 100 nM, anti-c-Myc-Cy3

| SPOT signal as a fraction of Bim BH3's signal on the same receptor and array | Binder |
| --- | --- |
| 0.04 | SKEVAILCSFLLGLGDSCFNTQLLSI [MFSD11] |
| 0.04 | MSLFLRVVFSFTMFGDLFEEEYSTVS [USP40] |
| 0.28 | AIILCNVCGNLCTDLDRFLHLHRRTK [MYCBP2] |
| 0.14 | SDIRDDISEQDRHVGRTVRGHPRKKL [TMEM184C] |
| 1.71 | TAAAAYRGAHLRGRGRTVYNTFRAAA |
| 0.03 | HHSSQEMSSEDREYADSFGKCPGGRN [PCYT2] |
| 0.06 | AFGLGDLPNLLGLVGDQLGDTERKRR [ADAMTS14] |
| 0.56 | PYLSKHRADRDRRLGDFLNQESFDLA [SMPD2] |
| 0.05 | AGYELLIQKFLSLYLDQIDMHRKFVV [ISOC1] |
| 0.07 | LALMMQLARELKTLARDLGMAVVVTN [RAD51L3] |
| 0.08 | QRKHEGFERDLAALLDKVNSLGETAE [SPTAN1] |
| 0.06 | VTLLSEVEKMLSNFLDCVQYKEIVKN [SYNE1] |
| 0.07 | LTETSLISGNLHRILDITSCSVLWLN [FBXW5] |
| 0.49 | AEVMRQRGINDRYLGKVLELVLRSPA [KIAA0664] |
| 0.04 | THFLDEEVKLIKKMLDHLTNLHRLGG [FTL] |
| 0.04 | QEQEQHVPFDIHTYLDQLVSRFPQLN [NCAPH2] |

| SPOT signal as a fraction of Bim BH3's signal on the same receptor and array | Binder |
| --- | --- |
| 0.03 | SQEPLEKAQLLALVLDQLIQSHHYAA [MCF2L2] |
| 1.47 | GTAVAYRGAHDRGRGRAVYNTFRAAP |
| 0.23 | YIVLGLRKTTLQKVLKEVAELVGRVG [NLRX1] |
| 0.02 | EQWAREIGAQDRRMADDLNAQYERRR [BBC3] |
| 0.05 | SHFVACMTAILNQMGDQHYSFYIETF |
| 0.04 | QCPIFRLGDIFRETLDNFSDVAIQGG [P2RX7] |
| 0.11 | TETKATFGVHLKIVGDWTERFRDLLL [NOX4] |
| 0.04 | VLLTLLVAAVLRCQGQDVQEAGSCVQ [COL2A1] |
| 0.43 | KLALEQRCREDRARGRRLEETLPRRI [KIF19] |
| 0.44 | LMARPAVALHFQSILDGFKEAVRYVL [SOS2] |
| 0.26 | PALLVHWAKCDQKMGRGLNSSYDQQE [RGPD2] |
| 0.52 | RVCPYYLSRNLKQQLDIIFMPYNYLL [RTEL1] |
| 0.05 | SHFVACMTAIDNQMGDQHYSFYIETF |
| 0.03 | HTALENCASLDCIRADELQEALTSHC [MYO3A] |
| 0.54 | LALLAQPSHLMRQVLRSVFGHICSHL [MYBBP1A] |
| 0.19 | ERLKGQLCDVLLIVLDQKFRAHKNVL [ZNF295] |

Target: T2, Mcl-1, Q07820
Test: as above

| SPOT signal as a fraction of Bim BH3's signal on the same receptor and array | Binder |
| --- | --- |
| 0.05 | SKEVAILCSFLLGLGDSCFNTQLLSI [MFSD11] |
| 0.07 | MSLFLRVVFSFTMFGDLFEEEYSTVS [USP40] |
| 0.51 | AIILCNVCGNLCTDLDRFLHLHRRTK [MYCBP2] |
| 0.13 | SDIRDDISEQDRHVGRTVRGHPRKKL [TMEM184C] |
| 1.37 | TAAAAYRGAHLRGRGRTVYNTFRAAA |
| 0.04 | HHSSQEMSSEDREYADSFGKCPGGRN [PCYT2] |
| 0.08 | AFGLGDLPNLLGLVGDQLGDTERKRR [ADAMTS14] |
| 0.51 | PYLSKHRADRDRRLGDFLNQESFDLA [SMPD2] |
| 0.07 | AGYELLIQKFLSLYLDQIDMHRKFVV [ISOC1] |
| 0.12 | LALMMQLARELKTLARDLGMAVVVTN [RAD51L3] |
| 0.11 | QRKHEGFERDLAALLDKVNSLGETAE [SPTAN1] |
| 0.06 | VTLLSEVEKMLSNFLDCVQYKEIVKN [SYNE1] |
| 0.04 | LTETSLISGNLHRILDITSCSVLWLN [FBXW5] |
| 0.53 | AEVMRQRGINDRYLGKVLELVLRSPA [KIAA0664] |
| 0.05 | THFLDEEVKLIKKMLDHLTNLHRLGG [FTL] |
| 0.04 | QEQEQHVPFDIHTYLDQLVSRFPQLN [NCAPH2] |

| SPOT signal as a fraction of Bim BH3's signal on the same receptor and array | Binder |
| --- | --- |
| 0.04 | SQEPLEKAQLLALVLDQLIQSHHYAA [MCF2L2] |
| 1.35 | GTAVAYRGAHDRGRGRAVYNTFRAAP |
| 0.25 | YIVLGLRKTTLQKVLKEVAELVGRVG [NLRX1] |
| 0.07 | EQWAREIGAQDRRMADDLNAQYERRR [BBC3] |
| 0.06 | SHFVACMTAILNQMGDQHYSFYIETF |
| 0.05 | QCPIFRLGDIFRETLDNFSDVAIQGG [P2RX7] |
| 0.08 | TETKATFGVHLKIVGDWTERFRDLLL [NOX4] |
| 0.04 | VLLTLLVAAVLRCQGQDVQEAGSCVQ [COL2A1] |
| 0.44 | KLALEQRCREDRARGRRLEETLPRRI [KIF19] |
| 0.84 | LMARPAVALHFQSILDGFKEAVRYVL [SOS2] |
| 0.41 | PALLVHWAKCDQKMGRGLNSSYDQQE [RGPD2] |
| 0.75 | RVCPYYLSRNLKQQLDIIFMPYNYLL [RTEL1] |
| 0.05 | SHFVACMTAIDNQMGDQHYSFYIETF |
| 0.03 | HTALENCASLDCIRADELQEALTSHC [MYO3A] |
| 0.54 | LALLAQPSHLMRQVLRSVFGHICSHL [MYBBP1A] |
| 0.19 | ERLKGQLCDVLLIVLDQKFRAHKNVL [ZNF295] |

Each binder was assayed against Bcl-xL, Q07817 in the same assay as above.
Bcl-xL, Q07817, sequence (Q07817 1-209): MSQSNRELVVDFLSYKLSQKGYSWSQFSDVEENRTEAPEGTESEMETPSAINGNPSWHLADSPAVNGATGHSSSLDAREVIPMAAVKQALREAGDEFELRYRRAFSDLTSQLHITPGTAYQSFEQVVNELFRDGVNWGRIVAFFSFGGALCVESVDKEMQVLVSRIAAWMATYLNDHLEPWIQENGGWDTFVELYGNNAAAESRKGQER

| SPOT signal as a fraction of Bim BH3's signal on the same receptor and array | Binder |
| --- | --- |
| 0.09 | SKEVAILCSFLLGLGDSCFNTQLLSI [MFSD11] |
| 0.07 | MSLFLRVVFSFTMFGDLFEEEYSTVS [USP40] |
| 0.51 | AIILCNVCGNLCTDLDRFLHLHRRTK [MYCBP2] |
| 0.45 | SDIRDDISEQDRHVGRTVRGHPRKKL [TMEM184C] |
| 2.64 | TAAAAYRGAHLRGRGRTVYNTFRAAA |
| 0.05 | HHSSQEMSSEDREYADSFGKCPGGRN [PCYT2] |
| 0.1 | AFGLGDLPNLLGLVGDQLGDTERKRR [ADAMTS14] |
| 0.49 | PYLSKHRADRDRRLGDFLNQESFDLA [SMPD2] |
| 0.09 | AGYELLIQKFLSLYLDQIDMHRKFVV [ISOC1] |
| 0.1 | LALMMQLARELKTLARDLGMAVVVTN [RAD51L3] |
| 0.1 | QRKHEGFERDLAALLDKVNSLGETAE [SPTAN1] |
| 0.11 | VTLLSEVEKMLSNFLDCVQYKEIVKN [SYNE1] |
| 0.06 | LTETSLISGNLHRILDITSCSVLWLN [FBXW5] |
| 0.86 | AEVMRQRGINDRYLGKVLELVLRSPA [KIAA0664] |
| 0.07 | THFLDEEVKLIKKMLDHLTNLHRLGG [FTL] |
| 0.06 | QEQEQHVPFDIHTYLDQLVSRFPQLN [NCAPH2] |

| SPOT signal as a fraction of Bim BH3's signal on the same receptor and array | Binder |
| --- | --- |
| 0.06 | SQEPLEKAQLLALVLDQLIQSHHYAA [MCF2L2] |
| 2.76 | GTAVAYRGAHDRGRGRAVYNTFRAAP |
| 0.35 | YIVLGLRKTTLQKVLKEVAELVGRVG [NLRX1] |
| 0.05 | EQWAREIGAQDRRMADDLNAQYERRR [BBC3] |
| 0.07 | SHFVACMTAILNQMGDQHYSFYIETF |
| 0.06 | QCPIFRLGDIFRETLDNFSDVAIQGG [P2RX7] |
| 0.16 | TETKATFGVHLKIVGDWTERFRDLLL [NOX4] |
| 0.06 | VLLTLLVAAVLRCQGQDVQEAGSCVQ [COL2A1] |
| 0.83 | KLALEQRCREDRARGRRLEETLPRRI [KIF19] |
| 0.48 | LMARPAVALHFQSILDGFKEAVRYVL [SOS2] |
| 0.38 | PALLVHWAKCDQKMGRGLNSSYDQQE [RGPD2] |
| 1.16 | RVCPYYLSRNLKQQLDIIFMPYNYLL [RTEL1] |
| 0.08 | SHFVACMTAIDNQMGDQHYSFYIETF |
| 0.05 | HTALENCASLDCIRADELQEALTSHC [MYO3A] |
| 0.75 | LALLAQPSHLMRQVLRSVFGHICSHL [MYBBP1A] |
| 0.41 | ERLKGQLCDVLLIVLDQKFRAHKNVL [ZNF295] |
